{
  "source": "the DeepSol protein solubility set",
  "test": "soluble on expression in E. coli; label from the status in PepcDB or PDB records",
  "data": [
    {"sequence": "MAHHHHHHMMSADPNSFEAIRPKLTAQTLQDIEGLDPQKYGFGREECCGPIPTKIIGSMSLREHIFLNTRMPAREWDKRTENVPGFKELSQRVKHALPDASFTVSHLDQDTEDSILHCKVDDDKKAVIITQYSSVSEPYELPWEVKGTLAVDRSGEYFIFVCSHFTRDARCGYCGSVLIDLFRHALLEKMGAGGTARVTVCSCSHVGGHVYAGNVIIYSRHGGICYGLFKPEDVLPVVDAIAEDKGAIPESLRNRIRGQMGSNAS", "values": [
      {"measurement": "soluble on expression in E. coli", "result": "soluble"}
    ]},
    {"sequence": "MGSDKIHHHHHHMTTDHPSAYCFFQDLAPRPPLDAAFDRDYLLYAIRGALRVSVAGESWLLPPSFAAWLPANTPISVDIDKPVTTCSVLARPGLCTGLPEKACVFQMSPMARQMIHYCKDWGPDAAHPAQAEGFFLALLHVCADLAVKSVDVKRPTATDPVLRKAIDITEAHLAQAITANEIARKVNLSERSMQRHFQMDVGMTWSQTLTQLRMIHAVALLAEGKLSIIQIAGYTGFQSLSAFNRAFRTFAATTPTKFRKALLD", "values": [
      {"measurement": "soluble on expression in E. coli", "result": "not soluble"}
    ]},
    {"sequence": "MSLDRVEEQRITIPDFQKLVEAQTGSEISMDDFYPASSVRPISDFVAAIEGEPQVTFTCHQHCGTATYIFLEDDKIIPITRFIDVDRFFEVLEKGKDEIEEGGIAAKARVIARSAIELPKTLDKSEAPESVDIKRILTSIFKERSYTALGEFHYNTLLISCMHFMDPWNFDIDRVRRCVIHYALPDGRIVPFCTMNSIHRADVERHFAKPLNESKEGHHHHHH", "values": [
      {"measurement": "soluble on expression in E. coli", "result": "not soluble"}
    ]},
    {"sequence": "MGSDKIHHHHHHMPDTTHATIRSARLGDVEHILAEYRQAVAELPREESANLLWRPYDEFKAAVENGLFFVIENAVGSFMAGAGVFDLPGSVEKELGMCYVKKEWRGYGLQNLLLQIRICAATLGHVPDKSGEDAATKSFAALITGVKPANEHSAANTERLGFEPLPTPPSALFNACASCRTPPARDSGRKCCCDFFYLSDARRAEAIEKSLQMENWSRTRNGHGLIVALKIRHLLDIDFRNALHDIVQELRAQEPRVPTPGKQVK", "values": [
      {"measurement": "soluble on expression in E. coli", "result": "not soluble"}
    ]},
    {"sequence": "MGKSIPVKTGLRGASAAVAGFIKSSKPIRPISSMDSSDKDSSSTTTTSETTRRFVPLSSVVSDCAKRWFKDTLEEAKAGNITMQVLLGQMYYSGYGVPKDARKVSSLFPPFQSLLFQVLGYNASDSDSESD", "values": [
      {"measurement": "soluble on expression in E. coli", "result": "not soluble"}
    ]},
    {"sequence": "MSLLILIGWQIQVRQPSDYIMNKTEFYADLNRDFNALMAGETSFLATLANTSALLYERLTDINWAGFYLLEDDTLVLGPFQGKIACVRIPVGRGVCGTAVARNQVQRIEDVHVFDGHIACDAASNSEIVLPLVVKNQIIGVLDIDSTVFGRFTDEDEQGLRQLVAQLEKVLATTDYKKFFASVAGEGGSHHHHHH", "values": [
      {"measurement": "soluble on expression in E. coli", "result": "soluble"}
    ]},
    {"sequence": "MAHHHHHHMRPTFPALGSRAKGYENRVMVYAHRRHRAWYLPPKLAHARSPLANKSPDEYGNTWDPRTGVEWYHRLRRRGAYRHWPWARWNDDPVRQHQELSCRRTFSAAVTGANEGVPLWNYYAEVGQEYGLPSHFPLSFMAPFIHQYTSRAWSRKEIERHLKVVEERTGLRTIQQACDATSELLEWGEEEMGVVPHGLLQHVVMLAEDIVLQNKKKAYRKAAHERGILRTTTMERYYALPHLRTGPPMPTTLEQPSGEFPWGKFSTMVGGTRIHPLYRPDGFFKDNMYPA", "values": [
      {"measurement": "soluble on expression in E. coli", "result": "not soluble"}
    ]},
    {"sequence": "FQRSTPAITLESPDIKYPLRLIDREIISHDTRRFRFALPSPQHILGLPVGQHIYLSARIDGNLVVRPYTPISSDDDKGFVDLVIKVYFKDTHPKFPAGGKMSQYLESMQIGDTIEFRGPSGLLVYQGKGKFAIRPDKKSNPIIRTVKSVGMIAGGTGITPMLQVIRAIMKDPDDHTVCHLLFANQTEKDILLRPELEELRNKHSARFKLWYTLDRAPEAWDYGQGFVNEEMIRDHLPPPEEEPLVLMCGPPPMIQYACLPNLDHVGHPTERCFVF", "values": [
      {"measurement": "soluble on expression in E. coli", "result": "soluble"}
    ]},
    {"sequence": "MGSDKIHHHHHHMDITPFLNRTLDIPLYQQLYRYFKENMHRGRIQKGMKLPSKRLLANQLSISQTTVERAYEQLAAEGYIVSKPRSGWFADYHDSDFAYDRMPSTTPIQQEAEENKQWIDFHYGNVDSSYFPFSAWRKSMVNSLDQYGHELYRPGHVLGEFELRTLIAEYLYQSRGVHCGPEQVIIGAGNPILLQILCQVFEPNISIGYEDPGYPRARKIFEANRMNIVPIPVDDEGICIQKIKEQQPNLVYVTPSHQFTLGTIMTINRRIQLLKWAAENQSFIIEDDYDGEFRYTGQPVPSLQGLDQHNRVIYMGTFSKSLLPSLRISYMILPSPLLKKGHEITSLYKQTVSCHSQLTLAEFIKNGEWQKHINRMRKLYRKKRAIVLEAVQRELGEHVRIRGENSGLRILLDVYLPFGEKELIEKAKKHGVKIYPVSLSYQHHPPTKTVSLGFAGVSESDIREGIKKLKAAWKI", "values": [
      {"measurement": "soluble on expression in E. coli", "result": "not soluble"}
    ]},
    {"sequence": "MRTVEVVGRGPAVDALAAFLADIDVSVAQPSTPADSSGDLAIVVDTVGSERFAAWNDRAKDDAIPWVAVELGGVGGVPVTDAAISGFGPETGCFDCLRTRVEATVDDTEEVTGAPAAATQRFAGALAGRLVTQFLDGDAALLGTVTELPHTQRRFLPVPGCDCGGTQGHSLGDGRQTAPDSEALSRAELGLDDRVGIATEVGEVESFPAPYYLSTLADTAGFSDVSAAAKAAGVAIDWDTAFMKALGENYERYAAGVYREGNLQHGTVADVPAAVTPDTFVRDEAEWDESHALPWVPAENLLTDEQRSLPAETVHYPPPSNAVRPATTTGLGLGNTVTEALLTGLYEVIERDAAMLSWYSTFDPLRVAIDEHEQYETLRRRATSEGLDVTALLLTQDVDVPVITVALAQDEWPRFALGTDADLNPGAAAVGALEEALQNWMELDSMGPEAAMDAQGAIGRYAKSPGEAADLTASETAVPLDSLGPDVDLSGEAELETLCDRAADAGLAPYGTRLTTRDLEQLGFEAVRVVCPSAQPLFFGESFFGERAETVPADLGFEPRLDRDHHPFP", "values": [
      {"measurement": "soluble on expression in E. coli", "result": "soluble"}
    ]},
    {"sequence": "MDQKSSSPQPAAQAPETKQAFPRKFVLAALEQSSDDAGWANLGNFGNYLNKLQPDFDSRLYGYKKLSDLVKARTDLFVTEERQVPGSTQKALYLRAKLEHHHHHH", "values": [
      {"measurement": "soluble on expression in E. coli", "result": "soluble"}
    ]},
    {"sequence": "MGSDKIHHHHHHCASSLTQGKYVDGTHLVQAKGKKSQIVLEVKVDQGKIVDIKTKSHKETESLYLNAERLLPRIVANNGHEGIDAVSGATYSSNGILKAVNDLPRASSVQPEYVAVGAKEEQGDDFKLKWSIQPKLGLLVGDYYYEEARFRQGHMGSMTIVTNSQDRNDVILAEFNESGRPNYYTRLYQDVPKRMSEYNFSMGKKKGTAWVQSALTMEKLMVEQDKLTFEPNPNHDPKLANKLKEPNRLKYLGIDVVAGASNSIQQSMIPLTAKIHHKIHGEGTRLKFYQLAEKLVNEKGRWTGITAMLRLVVDPASKQIIKAHFDEIFADEKAQIQDASLKKFYRQSKYDSINYSEPARIGFNVMIDALNAHLQAGGSLFDINDLPATGDSGNYAATGFTKRSSSWDIYLNQAEQLYKKMRLDGVIAEHKHPAAK", "values": [
      {"measurement": "soluble on expression in E. coli", "result": "not soluble"}
    ]},
    {"sequence": "MVMRGNKMRGDKKIFKKRVERFQELLKENNIDGAVIRTLSSFIYFTGTKWLRPSLLIPAEGEPRVLVVKGEAELFKERSWIEDVVEYQKAEELMLTVVKWIRENEMKRVGLEFGIERDAYLIFYKIFLRLNPTVEVVDILDLTMKLRMIKDEWELDNIRKAGKIALKGMRVAEEEIKPGRTELEIAAEVTRELMLNGSEDPKVYVSVTPRAHAEPFRDLKVPENGVVTVVIGTDWNHYYANMARTFIIGDPGERVKKAIEVKKEAIKLALEETKVGVPISTVEKKIEQFFKERGFGDYHLSGYTHGVGLLIEEPPIATIVVPQRAAKIQENMVLSIIHPPLMLPEGAIKYENTYIVKKDGLERVT", "values": [
      {"measurement": "soluble on expression in E. coli", "result": "soluble"}
    ]},
    {"sequence": "MAGNSNLMIKTLRKISEILKKPPKASSESDVTVRDKACQALGSIKRLIGDTITAFIGPISTETAKIEKINQYQQEAAEEFKKFQETQPKAGGDGGAENSAENLDENQENSPEKAEKPQVLDAWELLEPEDCSKKIDKSVETQLIDKNWKERLAGAENVKKSMENAGRIEISERLTEISKLLMKIVEKDVNVNVGAISAQILAEIAKKSRFSFAPLALRAFPVVFDKLKDKKAILRDALVEFCDEAANTTPLSAYSEAVITALSNKNPQARQQTALFLSRFFAKNDPKTVETEAVKQLAEHILKTSNDADKEVREAALRIVAAVQKCLGEGVAKRLLAEVYDDKLKAEKLPPLIEELEKEFGSSASPEMLRLAKHYKIGASSTSAPPKTTAAGAPKRPSSAVAPRRAPPASAAPTRRAPSPKAPVVAPTRRAPSPKAPVASVAPVKPKPFVARPAPSFGKPRAAVAPARAPQITQRAPAATRPSTSAIRVTPIAPNVVRNGAPTTAQQAPRKPIGIARPQTSSGIAAPGAPRSRIAMPTTSSSSLARRPGSASSSVPRVPTGAASMTSSSRIRPPSRPGSRPGSRNE", "values": [
      {"measurement": "soluble on expression in E. coli", "result": "not soluble"}
    ]}
  ]
}
